Experimental data as given in patent US20190134153A1, “IMMUNOMODULATORY EFFECT OF INHALED KINASE INHIBITOR PEPTIDES IN LUNG” (MOERAE MATRIX, INC., priority 2017, published 2019).

How the values were obtained:
Assay in all cases: Kinase Profiling Assay
Assay type in all cases: biochemical
Conditions in all cases: 100 μM
ARK5(h) = biological target: T1, ARK5(h) (Homo sapiens, UniProt O60285)
T1 sequence (O60285 1-661): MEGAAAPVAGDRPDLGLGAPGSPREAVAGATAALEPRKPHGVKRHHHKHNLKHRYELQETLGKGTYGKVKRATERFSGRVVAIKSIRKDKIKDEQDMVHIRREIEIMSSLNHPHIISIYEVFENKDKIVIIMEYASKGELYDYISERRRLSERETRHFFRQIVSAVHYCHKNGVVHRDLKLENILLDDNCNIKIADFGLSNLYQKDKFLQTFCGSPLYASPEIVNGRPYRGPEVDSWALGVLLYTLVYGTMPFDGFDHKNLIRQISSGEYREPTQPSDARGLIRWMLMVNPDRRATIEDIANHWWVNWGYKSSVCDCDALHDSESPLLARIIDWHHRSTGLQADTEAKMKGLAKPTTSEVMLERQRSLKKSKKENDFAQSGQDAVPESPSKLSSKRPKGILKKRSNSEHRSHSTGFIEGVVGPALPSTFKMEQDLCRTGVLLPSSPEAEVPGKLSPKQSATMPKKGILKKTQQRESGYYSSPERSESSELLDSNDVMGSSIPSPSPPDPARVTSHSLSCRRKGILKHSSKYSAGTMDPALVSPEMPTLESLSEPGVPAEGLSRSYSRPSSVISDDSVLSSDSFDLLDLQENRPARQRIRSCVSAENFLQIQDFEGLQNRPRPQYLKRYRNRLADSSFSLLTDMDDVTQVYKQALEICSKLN

GRK7(h) = biological target: T2, GRK7(h) (Homo sapiens, UniProt Q8WTQ7)
T2 sequence (Q8WTQ7 1-553): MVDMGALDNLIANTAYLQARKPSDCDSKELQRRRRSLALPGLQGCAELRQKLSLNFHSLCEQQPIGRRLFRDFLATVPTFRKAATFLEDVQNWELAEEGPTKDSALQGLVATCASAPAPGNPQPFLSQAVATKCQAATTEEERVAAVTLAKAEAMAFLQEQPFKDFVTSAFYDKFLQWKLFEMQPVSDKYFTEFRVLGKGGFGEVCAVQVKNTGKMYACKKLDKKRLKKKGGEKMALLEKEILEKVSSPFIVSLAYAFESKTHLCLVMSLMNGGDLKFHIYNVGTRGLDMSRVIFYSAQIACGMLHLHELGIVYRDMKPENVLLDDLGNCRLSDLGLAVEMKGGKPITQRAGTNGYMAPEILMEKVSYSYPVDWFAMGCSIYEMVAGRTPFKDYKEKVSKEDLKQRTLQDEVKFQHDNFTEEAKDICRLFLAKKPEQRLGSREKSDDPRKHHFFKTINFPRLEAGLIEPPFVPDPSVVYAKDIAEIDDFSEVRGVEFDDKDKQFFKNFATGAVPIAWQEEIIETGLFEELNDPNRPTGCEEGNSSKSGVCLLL

CaMKIV(h) = biological target: T3, CaMKIV(h) (Homo sapiens, UniProt Q16566)
T3 sequence (Q16566 1-473): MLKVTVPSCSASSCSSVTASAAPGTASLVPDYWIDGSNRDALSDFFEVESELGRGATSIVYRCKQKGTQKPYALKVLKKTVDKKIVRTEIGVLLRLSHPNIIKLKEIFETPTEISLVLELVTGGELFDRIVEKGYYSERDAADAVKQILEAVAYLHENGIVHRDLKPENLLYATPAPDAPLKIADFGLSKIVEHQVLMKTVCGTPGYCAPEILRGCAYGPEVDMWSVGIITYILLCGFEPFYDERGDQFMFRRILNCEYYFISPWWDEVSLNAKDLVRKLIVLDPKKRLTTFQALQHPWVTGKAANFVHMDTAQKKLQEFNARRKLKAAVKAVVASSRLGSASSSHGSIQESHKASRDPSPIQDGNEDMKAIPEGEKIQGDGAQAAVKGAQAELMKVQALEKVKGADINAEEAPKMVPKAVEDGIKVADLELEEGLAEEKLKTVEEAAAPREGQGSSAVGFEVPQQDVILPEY

EphA5(h) = EphA5(h) (Homo sapiens, UniProt P54756)
Sequence of EphA5(h) (P54756 25-1037): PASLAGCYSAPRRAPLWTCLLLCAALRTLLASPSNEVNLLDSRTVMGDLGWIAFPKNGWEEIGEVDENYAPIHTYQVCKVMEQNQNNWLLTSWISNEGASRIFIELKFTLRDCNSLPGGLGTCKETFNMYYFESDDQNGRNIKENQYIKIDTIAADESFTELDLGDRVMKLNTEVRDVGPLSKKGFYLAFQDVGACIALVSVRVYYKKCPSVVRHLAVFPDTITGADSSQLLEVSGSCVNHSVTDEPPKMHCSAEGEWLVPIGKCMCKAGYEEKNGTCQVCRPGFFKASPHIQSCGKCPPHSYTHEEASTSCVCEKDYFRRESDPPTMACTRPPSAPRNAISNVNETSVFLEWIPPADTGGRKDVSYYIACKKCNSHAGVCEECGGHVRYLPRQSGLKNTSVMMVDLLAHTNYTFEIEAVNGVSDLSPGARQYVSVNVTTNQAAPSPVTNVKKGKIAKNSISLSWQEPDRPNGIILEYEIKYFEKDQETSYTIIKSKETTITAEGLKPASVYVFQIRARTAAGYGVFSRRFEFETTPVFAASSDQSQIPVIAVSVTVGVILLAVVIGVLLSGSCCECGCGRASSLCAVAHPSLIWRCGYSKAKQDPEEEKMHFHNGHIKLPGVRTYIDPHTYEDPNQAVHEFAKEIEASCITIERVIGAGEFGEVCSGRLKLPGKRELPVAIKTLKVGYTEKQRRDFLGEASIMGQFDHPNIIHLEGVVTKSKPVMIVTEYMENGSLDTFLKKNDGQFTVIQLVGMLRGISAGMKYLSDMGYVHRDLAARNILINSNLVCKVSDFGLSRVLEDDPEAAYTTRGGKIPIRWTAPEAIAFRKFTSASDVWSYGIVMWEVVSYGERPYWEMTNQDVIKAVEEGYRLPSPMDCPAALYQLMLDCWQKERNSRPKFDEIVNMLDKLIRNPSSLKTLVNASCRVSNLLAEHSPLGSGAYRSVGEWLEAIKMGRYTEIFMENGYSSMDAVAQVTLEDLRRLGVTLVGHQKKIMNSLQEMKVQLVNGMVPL

GCK(h) = biological target: T4, GCK(h) (Homo sapiens, UniProt Q12851)
T4 sequence (Q12851 1-820): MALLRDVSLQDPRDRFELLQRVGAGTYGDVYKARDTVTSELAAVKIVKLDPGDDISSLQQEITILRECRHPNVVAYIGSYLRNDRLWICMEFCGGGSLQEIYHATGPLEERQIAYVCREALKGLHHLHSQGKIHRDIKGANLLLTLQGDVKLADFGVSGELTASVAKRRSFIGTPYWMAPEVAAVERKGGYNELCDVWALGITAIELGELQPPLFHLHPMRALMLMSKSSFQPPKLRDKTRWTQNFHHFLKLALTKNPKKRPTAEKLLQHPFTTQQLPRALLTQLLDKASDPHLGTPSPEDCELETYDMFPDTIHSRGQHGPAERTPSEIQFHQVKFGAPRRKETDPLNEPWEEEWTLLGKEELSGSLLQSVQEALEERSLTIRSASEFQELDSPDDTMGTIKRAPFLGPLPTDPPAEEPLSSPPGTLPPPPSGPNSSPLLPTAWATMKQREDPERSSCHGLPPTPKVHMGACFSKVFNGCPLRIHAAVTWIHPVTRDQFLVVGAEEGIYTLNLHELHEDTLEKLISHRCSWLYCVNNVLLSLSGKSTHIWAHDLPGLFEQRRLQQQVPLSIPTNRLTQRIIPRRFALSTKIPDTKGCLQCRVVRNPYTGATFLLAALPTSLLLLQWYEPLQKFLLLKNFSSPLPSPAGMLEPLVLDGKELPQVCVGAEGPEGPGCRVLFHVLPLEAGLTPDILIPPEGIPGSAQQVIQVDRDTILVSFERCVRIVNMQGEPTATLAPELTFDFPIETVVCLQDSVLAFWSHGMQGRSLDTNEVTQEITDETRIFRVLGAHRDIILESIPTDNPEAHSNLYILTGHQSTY

VRK2(h) = VRK2(h) (Homo sapiens, UniProt Q86Y07)
Sequence of VRK2(h) (Q86Y07 whole entry): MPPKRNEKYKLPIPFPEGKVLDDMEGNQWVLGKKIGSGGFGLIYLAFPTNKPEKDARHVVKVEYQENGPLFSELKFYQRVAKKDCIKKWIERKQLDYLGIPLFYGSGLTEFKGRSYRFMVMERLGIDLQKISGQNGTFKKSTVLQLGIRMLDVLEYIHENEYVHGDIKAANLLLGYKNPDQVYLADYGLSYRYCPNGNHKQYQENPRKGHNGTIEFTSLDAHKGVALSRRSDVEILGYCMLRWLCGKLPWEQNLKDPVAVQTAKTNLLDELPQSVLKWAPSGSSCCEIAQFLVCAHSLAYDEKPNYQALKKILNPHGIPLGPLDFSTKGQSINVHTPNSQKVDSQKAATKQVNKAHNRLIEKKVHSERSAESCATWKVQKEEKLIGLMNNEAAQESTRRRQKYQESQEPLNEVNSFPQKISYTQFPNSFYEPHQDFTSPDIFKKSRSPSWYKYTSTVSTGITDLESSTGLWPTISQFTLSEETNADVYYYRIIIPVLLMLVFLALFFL

CDK1/cyclinB(h) = CDK1/cyclinB(h) (Homo sapiens, UniProt P06493)
Sequence of CDK1/cyclinB(h) (P06493 whole entry): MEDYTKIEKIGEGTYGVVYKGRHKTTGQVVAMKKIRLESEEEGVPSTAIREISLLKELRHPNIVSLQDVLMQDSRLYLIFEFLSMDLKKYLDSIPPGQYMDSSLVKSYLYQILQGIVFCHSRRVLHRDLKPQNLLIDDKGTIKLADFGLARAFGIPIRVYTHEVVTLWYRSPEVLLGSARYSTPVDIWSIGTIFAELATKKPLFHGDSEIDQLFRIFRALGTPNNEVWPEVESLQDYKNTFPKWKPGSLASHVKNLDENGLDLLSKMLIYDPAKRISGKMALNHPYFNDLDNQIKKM
Sequence of CDK1/cyclinB(h) (P14635 whole entry partner): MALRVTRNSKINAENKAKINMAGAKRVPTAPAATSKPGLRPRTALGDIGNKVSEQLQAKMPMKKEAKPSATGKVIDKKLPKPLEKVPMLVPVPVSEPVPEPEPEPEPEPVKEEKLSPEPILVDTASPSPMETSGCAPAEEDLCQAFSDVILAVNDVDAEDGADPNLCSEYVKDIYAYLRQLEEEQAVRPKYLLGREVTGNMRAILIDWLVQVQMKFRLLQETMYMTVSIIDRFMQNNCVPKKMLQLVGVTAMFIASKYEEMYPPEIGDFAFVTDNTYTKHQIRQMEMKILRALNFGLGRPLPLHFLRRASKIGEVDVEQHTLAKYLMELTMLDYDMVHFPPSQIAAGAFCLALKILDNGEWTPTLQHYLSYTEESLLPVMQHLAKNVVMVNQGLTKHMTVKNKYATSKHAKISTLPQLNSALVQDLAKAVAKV

Sequence	% activity (ARK5(h))	% activity (GRK7(h))	% activity (CaMKIV(h))	% activity (EphA5(h))	% activity (GCK(h))	% activity (VRK2(h))	% activity (CDK1/cyclinB(h))
YARAAARQARAKALNRQLGVA [MMI-0200]	93%	124%	71%	123%	99%	–	–
FAKLAARLYRKALARQLGVAA [MMI-0300]	78%	122%	17%	18%	70%	161%	73%
KAFAKLAARLYRKALARQLGVAA [MMI-0400]	69%	100%	18%	24%	66%	185%	74%
HRRIKAWLKKIKALARQLGVAA [MMI-0500]	20%	93%	−1%	42%	30%	169%	57%
